Reference: patent US20240287172A1 (SCIRHOM, published 2024)
Positions count from the first letter of the chain named.

Molecular target: T1, hiR2-FL-R543Q-T7 (human, UniProt Q6PJF5 1-856)
T1 sequence: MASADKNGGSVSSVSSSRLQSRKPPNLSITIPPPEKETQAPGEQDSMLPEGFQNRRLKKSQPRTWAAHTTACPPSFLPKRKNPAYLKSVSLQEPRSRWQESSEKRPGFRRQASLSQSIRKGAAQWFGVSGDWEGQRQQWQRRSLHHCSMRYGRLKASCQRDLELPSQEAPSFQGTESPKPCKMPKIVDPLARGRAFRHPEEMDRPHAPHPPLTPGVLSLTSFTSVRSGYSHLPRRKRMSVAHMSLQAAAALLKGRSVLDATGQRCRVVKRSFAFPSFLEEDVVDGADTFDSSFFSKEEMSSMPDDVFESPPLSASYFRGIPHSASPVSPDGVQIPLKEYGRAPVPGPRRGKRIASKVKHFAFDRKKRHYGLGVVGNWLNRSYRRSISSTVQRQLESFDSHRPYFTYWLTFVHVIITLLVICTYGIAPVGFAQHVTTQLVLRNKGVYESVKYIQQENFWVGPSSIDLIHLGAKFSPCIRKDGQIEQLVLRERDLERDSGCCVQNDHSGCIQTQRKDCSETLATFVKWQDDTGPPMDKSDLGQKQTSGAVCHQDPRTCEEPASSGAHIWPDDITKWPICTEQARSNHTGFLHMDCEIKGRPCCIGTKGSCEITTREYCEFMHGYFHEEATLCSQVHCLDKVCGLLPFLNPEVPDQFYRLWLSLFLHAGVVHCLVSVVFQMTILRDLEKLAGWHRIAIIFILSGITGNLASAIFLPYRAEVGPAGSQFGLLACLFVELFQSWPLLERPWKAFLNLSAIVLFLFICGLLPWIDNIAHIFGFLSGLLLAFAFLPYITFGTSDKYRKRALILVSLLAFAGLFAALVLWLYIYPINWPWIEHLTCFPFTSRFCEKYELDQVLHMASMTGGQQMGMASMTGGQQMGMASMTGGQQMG
Test: FACS on MEF-DKO cells

B1: antibody 5 (antibody, V domains shown)
VH: QVTLKESGPGILQPSQTLSLTCSFSGFSLSTFGMGVGWIRQPSGKGLEWLAHIWWDDEKYYNSALKSRLTISKATSKNQAFLKIANVDTADTATYYCARISNYGSNYWYFNVWGTGTTVTVSS
VL: QVVLTQSPALMSASPGEKVTMTCSAGSSVSCMYWYQQKPGSSPRVLIYDTSNLASGVPARFTGSGSGTSYSLTISRMEAEDAASYYCQQWNSYPLTFGAGTKLELK
notes: mouse IgG, kappa light chain; also called clone #5; purified antibody 5
- binding result: no binding (tested: 3 µg/ml)

B2: antibody 42 (antibody, V domains shown)
VH: B1 VH with F24L, M34R, S63P, A74D, A80V, K83R, S101Q, N111D
VL: LIVLTQSPAIMSASPGEKVTMTCGATSRISYMFWYQQKPGSSPRVLIYDTSNLASGVPVRFSGSGSGTSYSLTISRVEAEDVATYYCQQWNSYPLTFGAGTKLELK
notes: mouse IgG, kappa light chain; also called clone #42; purified antibody 42
- binding result: no binding (tested: 3 µg/ml)

B3: antibody 34 (antibody, V domains shown)
VH: QVTLKESGPGILQPSQTLSLTCSFSGFSLSTFSLGVGWIRQSSGKGLEWLAHIWWDDEKYYNPALKSRLTISKDTSKNQVFLKIANVDAADTATYYCARAYYSKSYYALDYWGQGTSVTVSS
VL: DIQMTQSPSSLSASLGERVSLTCRASQEISGYLSWLQQKPDGTIKRLIYAASTLDSGVPKRFSGSRSGSDYSLAISSLESEDFADYYCLQYANFPFTFGSGTKLEIK
notes: mouse IgG, kappa light chain; also called clone #34; purified antibody 34
- binding result: no binding (tested: 3 µg/ml)

B4: antibody 43 (antibody, V domains shown)
VH: B1 VH with T3A, P42S, H52N, E58D, S63P, A74D, T75A, S101G, N111D
VL: B2 VL with L1Q, K18R, G24S, T26N, F33Y, V45L, V77M, V82A, Y86N, N91S
notes: mouse IgG, kappa light chain; also called clone #43; purified antibody 43
- binding result: no binding (tested: 3 µg/ml)
